B1: TFEC (protein, UniProt O14948 1-347, looked up)
Transcription factor EC: MTLDHQIINPTLKWSQPAVPSGGPLVQHAHTTLDSDAGLTENPLTKLLAIGKEDDNAQWHMEDVIEDIIGMESSFKEEGADSPLLMQRTLSGSILDVYSGEQGISPINMGLTSASCPSSLPMKREITETDTRALAKERQKKDNHNLIERRRRYNINYRIKELGTLIPKSNDPDMRWNKGTILKASVEYIKWLQKEQQRARELEHRQKKLEQANRRLLLRIQELEIQARTHGLPTLASLGTVDLGAHVTKQQSHPEQNSVDYCQQLTVSQGPSPELCDQAIAFSDPLSYFTDLSFSAALKEEQRLDGMLLDDTISPFGTDPLLSATSPAVSKESSRRSSFSSDDGDEL
B2: TCF21 (protein, UniProt O43680 1-179, looked up)
Transcription factor 21: MSTGSLSDVEDLQEVEMLECDGLKMDSNKEFVTSNESTEESSNCENGSPQKGRGGLGKRRKAPTKKSPLSGVSQEGKQVQRNAANARERARMRVLSKAFSRLKTTLPWVPPDTKLSKLDTLRLASSYIAHLRQILANDKYENGYIHPVNLTWPFMVAGKPESDLKEVVTASRLCGTTAS
B3: TCFL5 (protein, UniProt Q9UL49 1-500, looked up)
Transcription factor-like 5 …: MSGPGPREPPPEAGAAGGEAAVEGAGGGDAALGEPGLSFTTTDLSLVEMTEVEYTQLQHILCSHMEAAADGELETRLNSALLAAAGPGAGAGGFAAGGQGGAAPVYPVLCPSALAADAPCLGHIDFQELRMMLLSEAGAAEKTSGGGDGARARADGAAKEGAGAAAAAAGPDGAPEARAKPAVRVRLEDRFNSIPAEPPPAPRGPEPPEPGGALNNLVTLIRHPSELMNVPLQQQNKCTALVKNKTAATTTALQFTYPLFTTNACSTSGNSNLSQTQSSSNSCSVLEAAKHQDIGLPRAFSFCYQQEIESTKQTLGSRNKVLPEQVWIKVGEAALCKQALKRNRSRMRQLDTNVERRALGEIQNVGEGATATQGAWQSSESSQANLGEQAQSGPQGGRSQRRERHNRMERDRRRRIRICCDELNLLVPFCNAETDKATTLQWTTAFLKYIQERHGDSLKKEFESVFCGKTGRRLKLTRPDSLVTCPAQGSLQSSPSMEIK
B4: TCEB2 (protein, UniProt Q15370 1-118, looked up)
Elongin-B: MDVFLMIRRHKTTIFTDAKESSTVFELKRIVEGILKRPPDEQRLYKDDQLLDDGKTLGECGFTSQTARPQAPATVGLAFRADDTFEALCIEPFSSPPELPDVMKPQDSGSSANEQAVQ
B5: THAP1 (protein, UniProt Q9NVV9 1-213, looked up)
THAP domain-containing …: MVQSCSAYGCKNRYDKDKPVSFHKFPLTRPSLCKEWEAAVRRKNFKPTKYSSICSEHFTPDCFKRECNNKLLKENAVPTIFLCTEPHDKKEDLLEPQEQLPPPPLPPPVSQVDAAIGLLMPPLQTPVNLSVFCDHNYTVEDTMHQRKRIHQLEQQVEKLRKKLKTAQQRCRRQERQLEKLKEVVHFQKEKDDVSERGYVILPNDYFEIVEVPA
B6: THAP10 (protein, UniProt Q9P2Z0 1-257, looked up)
THAP domain-containing …: MPARCVAAHCGNTTKSGKSLFRFPKDRAVRLLWDRFVRGCRADWYGGNDRSVICSDHFAPACFDVSSVIQKNLRFSQRLRLVAGAVPTLHRVPAPAPKRGEEGDQAGRLDTRGELQAARHSEAAPGPVSCTRPRAGKQAAASQITCENELVQTQPHADNPSNTVTSVPTHCEEGPVHKSTQISLKRPRHRSVGIQAKVKAFGKRLCNATTQTEELWSRTSSLFDIYSSDSETDTDWDIKSEQSDLSYMAVQVKEETC
B7: TCF15 (protein, UniProt Q12870 1-199, looked up)
Transcription factor 15: MAFALLRPVGAHVLYPDVRLLSEDEENRSESDASDQSFGCCEGPEAARRGPGPGGGRRAGGGGGAGPVVVVRQRQAANARERDRTQSVNTAFTALRTLIPTEPVDRKLSKIETVRLASSYIAHLANVLLLGDSADDGQPCFRAAGSAKGAVPAAADGGRQPRSICTFCLSNQRKGGGRRDLGGSCLKVRGVAPLRGPRR
B8: TGIF2LY (protein, UniProt Q8IUE0 1-185, looked up)
Homeobox protein TGIF2LY: MEAAADGPAETQSPVEKDSPAKTQSPAQDTSIMSRNNADTGRVLALPEHKKKRKGNLPAESVKILRDWMYKHRFKAYPSEEEKQMLSEKTNLSLLRISNWFINARRRILPDMLQQRRNDPIIGHKTGKDAHATHLQSTEASVPAKSGPVVQTMYKACPCGPCQRARCQERSNQIRSRPLARSSPE
B9: TFDP3 (protein, UniProt Q5H9I0 1-405, looked up)
Transcription factor Dp …: MAKYVSLTEANEELKVLMDENQTSRPVAVHTSTVNPLGKQLLPKTFGQSSVNIDQQVVIGMPQRPAASNIPVVGSPNPPSTHFASQNQHSYSSPPWAGQHNRKGEKNGMGLCRLSMKVWETVQRKGTTSCQEVVGELVAKFRAASNHASPNESAYDVKNIKRRTYDALNVLMAMNIISREKKKIKWIGLTTNSAQNCQNLRVERQKRLERIKQKQSELQQLILQQIAFKNLVLRNQYVEEQVSQRPLPNSVIHVPFIIISSSKKTVINCSISDDKSEYLFKFNSSFEIHDDTEVLMWMGMTFGLESGSCSAEDLKMARNLVPKALEPYVTEMAQGTFGGVFTTAGSRSNGTWLSASDLTNIAIGMLATSSGGSQYSGSRVETPAVEEEEEEDNNDDDLSENDEDD
B10: TCF24 (protein, UniProt Q7RTU0 1-167, looked up)
Transcription factor 24: MDRGRPAGSPLSASAEPAPLAAAIRDSRPGRTGPGPAGPGGGSRSGSGRPAAANAARERSRVQTLRHAFLELQRTLPSVPPDTKLSKLDVLLLATTYIAHLTRSLQDDAEAPADAGLGALRGDGYLHPVKKWPMRSRLYIGATGQFLKHSVSGEKTNHDNTPTDSQP
B11: TBX6 (protein, UniProt O95947 1-436, looked up)
T-box transcription factor …: MYHPRELYPSLGAGYRLGPAQPGADSSFPPALAEGYRYPELDTPKLDCFLSGMEAAPRTLAAHPPLPLLPPAMGTEPAPSAPEALHSLPGVSLSLENRELWKEFSSVGTEMIITKAGRRMFPACRVSVTGLDPEARYLFLLDVIPVDGARYRWQGRRWEPSGKAEPRLPDRVYIHPDSPATGAHWMRQPVSFHRVKLTNSTLDPHGHLILHSMHKYQPRIHLVRAAQLCSQHWGGMASFRFPETTFISVTAYQNPQITQLKIAANPFAKGFRENGRNCKRERDARVKRKLRGPEPAATEAYGSGDTPGGPCDSTLGGDIRESDPEQAPAPGEATAAPAPLCGGPSAEAYLLHPAAFHGAPSHLPTRSPSFPEAPDSGRSAPYSAAFLELPHGSGGSGYPAAPPAVPFAPHFLQGGPFPLPYTAPGGYLDVGSKPMY
B12: TCF25 (protein, UniProt Q9BQ70 1-676, looked up)
Ribosome quality control …: MSRRALRRLRGEQRGQEPLGPGALHFDLRDDDDAEEEGPKRELGVRRPGGAGKEGVRVNNRFELINIDDLEDDPVVNGERSGCALTDAVAPGNKGRGQRGNTESKTDGDDTETVPSEQSHASGKLRKKKKKQKNKKSSTGEASENGLEDIDRILERIEDSTGLNRPGPAPLSSRKHVLYVEHRHLNPDTELKRYFGARAILGEQRPRQRQRVYPKCTWLTTPKSTWPRYSKPGLSMRLLESKKGLSFFAFEHSEEYQQAQHKFLVAVESMEPNNIVVLLQTSPYHVDSLLQLSDACRFQEDQEMARDLVERALYSMECAFHPLFSLTSGACRLDYRRPENRSFYLALYKQMSFLEKRGCPRTALEYCKLILSLEPDEDPLCMLLLIDHLALRARNYEYLIRLFQEWEAHRNLSQLPNFAFSVPLAYFLLSQQTDLPECEQSSARQKASLLIQQALTMFPGVLLPLLESCSVRPDASVSSHRFFGPNAEISQPPALSQLVNLYLGRSHFLWKEPATMSWLEENVHEVLQAVDAGDPAVEACENRRKVLYQRAPRNIHRHVILSEIKEAVAALPPDVTTQSVMGFDPLPPSDTIYSYVRPERLSPISHGNTIALFFRSLLPNYTMEGERPEEGVAGGLNRNQGLNRLMLAVRDMMANFHLNDLEAPHEDDAEGEGEWD
B13: THAP4 (protein, UniProt Q8WY91 1-577, looked up)
Peroxynitrite isomerase THAP4: MVICCAAVNCSNRQGKGEKRAVSFHRFPLKDSKRLIQWLKAVQRDNWTPTKYSFLCSEHFTKDSFSKRLEDQHRLLKPTAVPSIFHLTEKKRGAGGHGRTRRKDASKATGGVRGHSSAATSRGAAGWSPSSSGNPMAKPESRRLKQAALQGEATPRAAQEAASQEQAQQALERTPGDGLATMVAGSQGKAEASATDAGDESATSSIEGGVTDKSGISMDDFTPPGSGACKFIGSLHSYSFSSKHTRERPSVPREPIDRKRLKKDVEPSCSGSSLGPDKGLAQSPPSSSLTATPQKPSQSPSAPPADVTPKPATEAVQSEHSDASPMSINEVILSASGACKLIDSLHSYCFSSRQNKSQVCCLREQVEKKNGELKSLRQRVSRSDSQVRKLQEKLDELRRVSVPYPSSLLSPSREPPKMNPVVEPLSWMLGTWLSDPPGAGTYPTLQPFQYLEEVHISHVGQPMLNFSFNSFHPDTRKPMHRECGFIRLKPDTNKVAFVSAQNTGVVEVEEGEVNGQELCIASHSIARISFAKEPHVEQITRKFRLNSEGKLEQTVSMATTTQPMTQHLHVTYKKVTP
B14: TERF2 (protein, UniProt O35144 1-541, looked up)
Telomeric repeat-binding …: MAAGAGTAGPASGPGVVRDPMASQPRKRPSREGGEGGEGERRSNTMAGGGGSSDSSGRAASRRASRSGGRARRGRHEPGLGGAAERGAGEARLEEAVNRWVLKFYFHEALRAFRSSRYRDFRQIRDIMQALLVRPLGKEHTVSRLLRVMQCLSRIEEGENLDCSFDMEAELTPLESAINVLEMIKTEFTLTDSMVESSRKLVKEAAVIICIKNKEFEKASKILKKYMSKDPTTQKLRTDLLNIIREKNLAHPVIQNFSYEVFQQKMLRFLESHLDDTEPYLLTMAKKALKSESAASSTMREEKHPEPVEKPLREPPSRQPQNPPATIGIRTLKAAFKALSTAQDSEAAFAKLDQKDLVLANLASPSSPAHKHKRPRKDEHESAAPAEGEGGSDRQPRNSPMTISRLLLEEDSQSTEPSPGLNSSHKAMSASKPRALNQPHPGEKKPKASKDKWNSPNGLEEKEVWLEEDQLFEVQAPGEDRSSSLTRKQKWTIEESEWVKDGVRKYGEGNWAAISKSYPFVNRTAVMIKDRWRTMKKLGMN
B15: BLZF1 (protein, UniProt Q9H2G9 1-400, looked up)
Golgin-45: MTTKNLETKVTVTSSPIRGAGDGMETEEPPKSVEVTSGVQSRKHHSLQSPWKKAVPSESPGVLQLGKMLTEKAMEVKAVRILVPKAAITHDIPNKNTKVKSLGHHKGEFLGQSEGVIEPNKELSEVKNVLEKLKNSERRLLQDKEGLSNQLRVQTEVNRELKKLLVASVGDDLQYHFERLAREKNQLILENEALGRNTAQLSEQLERMSIQCDVWRSKFLASRVMADELTNSRAALQRQNRDAHGAIQDLLSEREQFRQEMIATQKLLEELLVSLQWGREQTYSPSVQPHSTAELALTNHKLAKAVNSHLLGNVGINNQKKIPSTVEFCSTPAEKMAETVLRILDPVTCKESSPDNPFFESSPTTLLATKKNIGRFHPYTRYENITFNCCNHCRGELIAL

Test system: HEK293FT cells transfected with TF library
Experiment: Screening of TF condensates based on fluorescent puncta
Assay type: cell-based
Settings: Figure 1B numerical data; TF library screen, one value per transcriptional factor
In short: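 HEK293FT, PEI transfection of TF library, 60 h; ±glucose 12 h; 4% PFA fix, 0.05% Triton X-100 permeabilization, 5% BSA block; anti-Flag/anti-GAL4 overnight at 4 °C, Alexa 488 secondary 1 h; high-content imaging, 50 fields/well.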

Row | Molecule | Z score of condensed fraction
1 | B1 | 1.616
2 | B2 | 0.06751
3 | B3 | -0.869
4 | B4 | -0.4277
5 | B5 | -0.6542
6 | B6 | 1.236
7 | B7 | 0.7138
8 | B8 | 1.271
9 | B9 | 0.6635
10 | B10 | -0.9879
11 | B11 | -0.7283
12 | B12 | 2.145
13 | B13 | -0.8956
14 | B14 | 0.4642
15 | B15 | -1.161

— paper PMC11574045, “A cofactor-induced repressive type of transcription factor condensation can be induced by synthetic peptides to suppress tumorigenesis” (The EMBO Journal, 2024)
